Results: PMC3878766 (2010)

Biological target: T1, Tolloid-like 1 (TLL-1) (Homo sapiens, UniProt O43897)
T1 chain: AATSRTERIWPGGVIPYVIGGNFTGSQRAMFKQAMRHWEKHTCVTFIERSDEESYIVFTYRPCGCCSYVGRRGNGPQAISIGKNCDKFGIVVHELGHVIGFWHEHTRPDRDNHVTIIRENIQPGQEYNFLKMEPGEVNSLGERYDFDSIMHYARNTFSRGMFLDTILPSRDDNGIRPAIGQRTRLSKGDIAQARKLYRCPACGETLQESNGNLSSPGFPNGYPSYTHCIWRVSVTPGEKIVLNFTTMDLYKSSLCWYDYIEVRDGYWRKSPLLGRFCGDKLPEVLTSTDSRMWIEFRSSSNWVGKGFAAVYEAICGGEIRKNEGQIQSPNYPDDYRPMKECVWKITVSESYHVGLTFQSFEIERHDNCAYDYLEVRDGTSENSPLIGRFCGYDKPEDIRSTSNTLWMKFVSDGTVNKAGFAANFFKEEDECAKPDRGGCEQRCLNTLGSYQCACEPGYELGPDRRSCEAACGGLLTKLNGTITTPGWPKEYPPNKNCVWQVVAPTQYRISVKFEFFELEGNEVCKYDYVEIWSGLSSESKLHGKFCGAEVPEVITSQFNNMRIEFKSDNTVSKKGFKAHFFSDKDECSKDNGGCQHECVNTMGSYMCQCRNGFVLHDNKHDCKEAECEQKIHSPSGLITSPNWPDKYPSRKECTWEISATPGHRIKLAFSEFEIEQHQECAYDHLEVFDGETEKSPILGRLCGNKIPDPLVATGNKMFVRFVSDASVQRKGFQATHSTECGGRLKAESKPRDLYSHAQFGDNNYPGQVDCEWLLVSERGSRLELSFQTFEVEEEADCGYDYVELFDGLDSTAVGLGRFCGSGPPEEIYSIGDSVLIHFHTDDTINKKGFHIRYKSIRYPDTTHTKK
Experiment: sedimentation equilibrium AUC

B1: Tolloid-like 1 (TLL-1) (protein)
chain: T1 chain
modifications: Ca2+ (0.5 mM CaCl2), V5-His6 tag
With B1 the Kd was 2 nM.
